B1: SC3 hydrophobin of Schizophyllum commune (other, UniProt P16933 25-136, looked up)
chain: GGHPGTTTPPVTTTVTVTTPPSTTTIAAGGTCTTGSLSCCNQVQSASSSPVTALLGLLGIVLSDLNVLVGISCSPLTVIGVGGSGCSAQTVCCENTQFNGLINIGCTPINIL
notes: Used as a self-assembled film (alpha-helix state or beta-sheet state) coated on TEFLON, polyethylene, glass, microtiter wells or oil droplets; Natural SC3 is glycosylated (mannose) at its N-terminal side; also called hydrophobin SC3
B2: SC4 hydrophobin of Schizophyllum commune (other)
chain: AGQACNSGPVQCCNETTTVANAQKQGLLGGLLGVVVGPITGLVGLNCSPISVVGVLTGNSCTAQTVCCDHVTQNGLVNVGCTPISL

Columns and labels:
[1] = biological target: T1, bovine pancreas trypsin (bovine, UniProt P00760 24-246); experiment: enzyme on SC3-coated TEFLON, rinsed; activity by spectrophotometry, constant after removal of the surface
T1 construct: Bought enzyme; also called 25 kD trypsin (bovine pancreas)
Method: The surface was first coated with SC3 hydrophobin by immersion in the protein aqueous solution (0.3 mg/mL) during approximately 30 minutes. The obtained modified surface was then immersed in an aqueous enzyme solution during approximately 30 minutes. After each step, the TEFLON™ surface was rinsed with an adequate buffer solution. […] The functionalized TEFLON® was stored at 4° C. in an Eppendorf tube containing a buffer solution.

[2] = biological target: BSA (bovine serum albumin) (bovine, UniProt P02769 25-607); experiment: protein on hydrophobin-coated TEFLON sheets, rinsed; TFA extraction and SDS-PAGE
From the text: BSA (bovine serum albumin) and fibronectin were immobilized on coated TEFLON™ sheets. […] The sheets were removed from the hydrophobin solution and were immediately washed with large amounts of water to remove any unbound hydrophobin. […] The presence of BSA or fibronectin on bare and coated TEFLON™ was detected extracting all protein with TFA, evaporating the TFA and loading the sample on SDS-PAGE and staining according to standard procedures.

[3] = biological target: T1, bovine pancreas trypsin; experiment: enzyme on hydrophobin-coated sheets, washed; chromogenic assay

T1 sequence (P00760 24-246): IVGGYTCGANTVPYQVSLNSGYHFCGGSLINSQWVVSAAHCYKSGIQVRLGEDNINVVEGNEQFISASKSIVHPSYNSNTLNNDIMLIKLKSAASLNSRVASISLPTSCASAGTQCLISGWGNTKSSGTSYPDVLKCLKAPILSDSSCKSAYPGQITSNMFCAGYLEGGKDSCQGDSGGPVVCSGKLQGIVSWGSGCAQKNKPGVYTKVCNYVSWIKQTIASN
BSA (bovine serum albumin), sequence (P02769 25-607 limits assumed): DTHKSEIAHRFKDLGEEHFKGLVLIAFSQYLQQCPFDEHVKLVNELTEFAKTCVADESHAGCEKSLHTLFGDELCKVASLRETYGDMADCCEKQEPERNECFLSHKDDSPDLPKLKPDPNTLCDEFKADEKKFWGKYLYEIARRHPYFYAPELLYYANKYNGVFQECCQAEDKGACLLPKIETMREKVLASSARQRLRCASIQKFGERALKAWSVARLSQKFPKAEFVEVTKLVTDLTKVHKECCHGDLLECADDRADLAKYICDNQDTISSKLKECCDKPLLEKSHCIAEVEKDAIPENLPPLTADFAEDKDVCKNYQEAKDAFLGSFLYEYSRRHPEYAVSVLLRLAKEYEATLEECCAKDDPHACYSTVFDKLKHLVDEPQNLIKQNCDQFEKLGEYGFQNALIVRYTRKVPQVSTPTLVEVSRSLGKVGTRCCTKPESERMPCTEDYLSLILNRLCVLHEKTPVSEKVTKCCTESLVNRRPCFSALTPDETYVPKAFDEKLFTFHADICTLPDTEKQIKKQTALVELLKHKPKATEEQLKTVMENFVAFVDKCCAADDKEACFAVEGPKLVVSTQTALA

Binder	binding result [1]	binding result [2]	binding result [3]
B1	binds	binds	
B2			binds

— patent publication US20050238685A1 (published 2005)
